From patent publication US20210061904A1 (GMAX BIOPHARM, published 2021) come the findings set out here.

For experiment [1], the target named is T1, human gastric inhibitory polypeptide receptor (hGIPR) (human, UniProt P48546 22-466).
T1 construct: also called human GIPR; CHO-DHFR-hGIPR
T1 sequence: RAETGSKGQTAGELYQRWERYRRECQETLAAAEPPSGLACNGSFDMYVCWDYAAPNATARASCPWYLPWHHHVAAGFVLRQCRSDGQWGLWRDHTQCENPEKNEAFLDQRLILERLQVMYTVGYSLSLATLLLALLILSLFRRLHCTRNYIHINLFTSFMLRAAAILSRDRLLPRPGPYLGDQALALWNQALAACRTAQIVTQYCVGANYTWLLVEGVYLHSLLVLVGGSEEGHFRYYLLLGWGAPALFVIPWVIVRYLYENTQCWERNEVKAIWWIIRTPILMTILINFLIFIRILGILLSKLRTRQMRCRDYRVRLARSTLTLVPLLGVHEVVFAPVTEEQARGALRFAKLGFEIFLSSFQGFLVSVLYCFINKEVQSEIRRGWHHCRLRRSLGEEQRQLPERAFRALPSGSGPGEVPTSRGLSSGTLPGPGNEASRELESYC
Description: FACS on CHO-DHFR-hGIPR cells, 1 µM antibody. As for the experimental part: PBS containing 10 mM EDTA was used to detach the CHO-DHFR-hGIPR cells and 10⁵ cells/tube was distributed into 1.5 mL EP tubes, and the supernatant was removed after centrifugation. The negative control sample was resuspended with a loading buffer (PBS, 2% FBS). For the positive control, 200 μL GIPR antibody solution of specific concentration was added to the cells and incubated at room temperature; after incubation, the cells were then centrifuged at 1500 rpm to remove the supernatant, washed with a FACS loading buffer and centrifuged again. The cells were resuspended with addition (200 μL/well) of a FITC labeled goat anti-mouse fluorescent antibody or PE labeled goat anti-human fluorescent antibody at 1:50 dilution and incubated at room temperature for 30 min in the dark. The supernatant was removed after centrifugation, and cells were washed with FACS loading buffer, centrifuged again and resuspended with the loading buffer for FACS analysis. The recombinant anti-hGIPR functional antibody specifically binds to GIPR-expressing CHO-DHFR-GIPR cells.

Experiment [2] addresses human GLP-1 receptor (hGLP-1R) (human) (UniProt P43220). Description: cell-based or functional assay.
Experiment [3] addresses T2, human gastric inhibitory polypeptide receptor (hGIPR) (human) (UniProt P48546).
T2 sequence: T1 sequence
Description: cell-based or functional assay.

Experiment [4] has as its target T1, human gastric inhibitory polypeptide …. Put plainly: cell-based or functional assay.

Chain of human GLP-1 receptor (hGLP-1R) (human) (P43220 24-463): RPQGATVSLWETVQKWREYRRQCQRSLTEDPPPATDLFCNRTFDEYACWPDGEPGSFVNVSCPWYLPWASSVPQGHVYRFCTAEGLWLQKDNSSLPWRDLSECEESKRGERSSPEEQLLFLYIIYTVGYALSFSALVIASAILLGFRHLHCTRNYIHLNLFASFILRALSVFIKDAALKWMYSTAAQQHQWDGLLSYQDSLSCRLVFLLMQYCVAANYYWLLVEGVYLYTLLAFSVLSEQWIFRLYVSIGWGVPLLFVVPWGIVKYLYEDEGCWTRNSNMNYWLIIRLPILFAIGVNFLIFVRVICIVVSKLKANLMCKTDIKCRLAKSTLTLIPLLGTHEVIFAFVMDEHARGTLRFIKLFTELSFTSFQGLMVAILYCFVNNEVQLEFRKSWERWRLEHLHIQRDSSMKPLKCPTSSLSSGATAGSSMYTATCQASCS

B1: hGIPR antibody L10H8 (antibody, V domains shown)
VH: QVQLQQSGAEVKKPGSSVKVSCKASGGTFSSYAISWVRQAPGQGLEWMGGIIPTFGTANYAQKFQGRVTITADESTSTAYMELSSLRSEDTAVYYCAQGPIVGAPTDYWGKGTLVTVSS
VL: SYVLTQPPSASGTPGQRVAISCSGSNSNIGSNTVHWYQQLPGAAPKLLIYSNNQRPSGVPDRFSGSNSGTSASLAISRLQSEDEADYYCAAWDDSLNGVVFGGGTKVTVL
notes: Recombinantly expressed complete antibody; Only the variable domains are tied to L10H8; also called Ll0H8
For the molecule B1, the binding result in experiment [1] was “binds”.

B2: GIPR antibody/GLP-1 fusion protein GLP-1-Linker-L7H6 (protein, part only; not given: constant regions, not shown: a dimerising Fc or GST)
light, part: HGEGTFTSDVSSYLEGQAAKEFIAWLVKGGGGGSGGGGSGGGGSDIVLTQSPASLAVSPGQRATITCRASQSVNTAVYSYIHWYQQKPGQPPKLLIKYASNLESGVPARFSGSGSGTDFTLTINPVEANDAANYYCQHSFDFPYTFGGGTKVEIKR
heavy, part: QVQLQESGPGLVKPSQTLSLTCTVSGYSITSDYAWNWIRQPPGKGVEWMGYISYRGIATYKPSLKSRITISRDTSKNQFSLKLSSVTAADTAVYYCVRGEYGPGNFDFWGQGTTVTVSS
Take B2: in experiment [2], the EC50, CRE-Luciferase reporter gene assay on CHO-DHFR- cells co-expressing hGLP1R was 0.04 nM. The molecule also registered an IC50, direct cAMP assay, antagonism of GIP (50 pM) activation of hGIPR on CHO-DHFR cells in experiment [3] of 14.9 nM.

B3: hGIPR antibody L7H6 (antibody, V domains shown)
VH: B2 heavy, part
VL: DIVLTQSPASLAVSPGQRATITCRASQSVNTAVYSYIHWYQQKPGQPPKLLIKYASNLESGVPARFSGSGSGTDFTLTINPVEANDAANYYCQHSFDFPYTFGGGTKVEIKR
Consider B3, for which the “IC50, direct cAMP assay, antagonism of GIP (50 pM) activation of hGIPR on CHO-DHFR cells” value in experiment [4] was found to be 7.6 nM.
